The target in this test is T1, human GDNF family receptor alpha-1 (GFRα1) joined to an Fc domain at its C-terminus (human, UniProt P56159-2 25-445).
T1 construct: Bought from R&D Systems; also called GFRa1-hFc; human GFRα1 Fc chimera (R&D Systems); not shown: human Fc domain joined to the C-terminus of GFRα1
T1 sequence (looked up): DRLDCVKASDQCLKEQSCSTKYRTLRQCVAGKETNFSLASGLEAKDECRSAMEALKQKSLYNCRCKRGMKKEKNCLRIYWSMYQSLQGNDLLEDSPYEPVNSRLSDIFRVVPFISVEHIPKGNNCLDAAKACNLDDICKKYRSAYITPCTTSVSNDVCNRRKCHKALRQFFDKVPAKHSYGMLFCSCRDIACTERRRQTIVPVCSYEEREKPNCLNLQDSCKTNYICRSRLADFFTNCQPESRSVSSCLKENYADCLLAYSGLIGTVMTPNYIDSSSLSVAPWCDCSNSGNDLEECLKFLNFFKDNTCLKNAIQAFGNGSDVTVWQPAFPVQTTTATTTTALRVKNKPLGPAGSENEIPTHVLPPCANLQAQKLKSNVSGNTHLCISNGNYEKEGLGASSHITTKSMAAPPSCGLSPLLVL
As to the kind of experiment: SPR; GFRα1-Fc chimera captured on CM5 chip by His-tag capture kit, analyte flowed over; apparent KD (KD,app). An excerpt: Surface Plasmon Resonance (SPR) was used to determine the binding affinities of the GDNF fusion polypeptides to GFRα1. The GDNF fusion polypeptides in this example include fusion polypeptides 2-4 as described in Example 1, as well as Fc (T366W)-GGG-hGDNF₁₁₇₋₂₁₁ (SEQ ID NO: 37) (fusion polypeptide 6) which has an Fc domain having the amino acid substitution T366W (relative to the sequence of human IgG1) joined to the N-terminus of the GDNF variant having amino acids 117-211 of SEQ ID NO: 1 through a GGG linker. The SPR assay was configured to capture human GFRα1, GFRα2, and GFRα3 Fc chimeras (R&D Systems) onto a CM5 chip surface using His-tag capture kit (GE Healthcare) to appropriate levels for kinetic analysis. GDNF fusion polypeptides were flowed over the immobilized GFRs to measure the kinetics of GDNF fusion polypeptide and GFR association and dissociation. The binding of various concentrations of GDNF fusion polypeptides was measured in HBS-EP buffer (GE Healthcare) at a flow rate of 30 μL/min. Binding curves were fitted using Scrubber2 software to obtain apparent binding affinities and kinetic constants.
On the technique in general: SPR reads the build-up and loss of mass on a sensor chip optically.

B1: R&D hGDNF (ligand, human, UniProt P39905 78-211, looked up)
chain: SPDKQMAVLPRRERNRQAAAANPENSRGKGRRGQRGKNRGCVLTAIHLNVTDLGLGYETKEELIFRYCSGSCDAAETTYDKILKNLSRNRRLVSDKVGQACCRPIAFDDDLSFLDDNLVYHILRKHSAKRCGCI
notes: also called human glial-derived neurotrophic factor
Turning to B1, the Kd is roughly 900 pM.

The values are drawn from patent publication US20260022150A1 (KEROS THERAPEUTICS, published 2026).
